The text below walks through data of paper PMC3310279 (Bioconjugate Chemistry, 2012).

The data set concerns MDA-MB-435 human breast tumor xenografts. Put plainly: Biodistribution in mice bearing MDA-MB-435 xenografts. Type of data set: in vivo. The note with it: MDA-MB-435 tumor-bearing athymic nude mice, 60 min p.i., mean ± SD n = 4.

For the substance “[^99mTc(HYNIC-K(NIC)-3G-RGD2)(tricine)] [Complex 2]”, the Tumor/Liver ratio was found to be 4.1 ± 0.97.
